# Laboratory results as given in the supplement of paper PMC9170038.
# Tested on: MS2 coat protein
# Experiment: apparent KD of MS2 coat protein; designed switch direction (-1 OFF switch, 1 ON switch): -1; higher = weaker reporter binding
# Summary of the method: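 The buffer was Tris-HCl pH 7.5 with KCl, MgCl2, BSA, DTT, tRNA and Tween-20. In it, SNAP-549-labelled MS2 coat protein was titrated in doubling steps from 0.7 or 1.5 nM to 3 µM over chip-bound RNA switches transcribed by stalled E. coli RNA polymerase on Illumina chips. Apparent KD is the per-design median over clusters of curve fits to normalised fluorescence.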
# [1] = Eterna round: R95, input ligand: microRNA oligo, concentration not stated
# [2] = Eterna round: R95, input ligand: FMN 200 uM
# [3] = Eterna round: R95, input ligand: none
# [4] = input ligand: microRNA oligo, concentration not stated
Sequence,apparent KD of MS2 coat protein [1] [nM],apparent KD of MS2 coat protein (input ligand: FMN 200 uM) [nM],apparent KD of MS2 coat protein (input ligand: none) [nM],apparent KD of MS2 coat protein [2] [nM],apparent KD of MS2 coat protein [3] [nM],apparent KD of MS2 coat protein [4] [nM]
CCGAGGCUAGGAUAUUGACGAUAAUACAUGAGGAUCACCCAUGUGAGUCGUGUAUGCGCGCAAGAAGGAGUAAUAA [Tiorreonbi] (puzzle: Exclusion 5),15.2,,,,,
"UAACUAACUCCUCGGAGCAACAUGAGGAUCACCCAUGUUAUGAACAUUCGGUGUAACAGGAUGUUUGCUCGUCUGGA [Eternabot (Original) Solution 22] (Eterna round: R97, puzzle: Sensor, turn-off variant 1)",,266,259,,,
"GUAAUUGAUGUCAGGAUAUCAGGGCCACAAUGCUAUGAGAAGGGACAUGAGGAUCACCCAUGUAAAAGUUCAUG [BmEX4 B.16] (Eterna round: R97, puzzle: Brourd's mod of Exclusion 4)",,180,69.8,,,
"CCGAACAUAGGAUAUACAUGAGGAUCACCCAUGUAUAUAAAAGGGUGUUCCAACUAAAGUAGAAGGAUGUAAGG [ExFusion 1 - Jieux - Exclusion 3] (Eterna round: R97, puzzle: Exclusion 3)",,36.5,40.6,,,
UGAUCUUUUGUUAGGAUAUGCUGUUUUUUUUUACAGCAGAAGGGACAUGAGGAUCACCCAUGUCUUGUCAUAAA [Magic-05] (puzzle: Brourd's mod of Exclusion 4),12.4,,,,,
"AGGUAGUCAGGAUAUUAGUAGUAGCGGGAUAACGCUACUAUUGAGAAGGGACAUGAGGAUCACCCAUGUUUUGU [JR_Ex4_Sub067] (Eterna round: R97, puzzle: Exclusion 4)",,54.7,22.5,,,
GAUUGACAUGAGGAUCACCCAUGUGAGGAUAUCGGCCGGACCUUGUUAGCUUCCGUCGCGAGAAGGCGCAUAGG [Exclusion 1 V37] (puzzle: Exclusion 1),39.9,,,62.6,33.2,
"CCUUGUGUUGAGGAUAUGCGCCGGCUCGCUGGCGCAGAAGGCGGCACAUGAGGAUCACCCAUGUCAGUUCGCGA [salish99_ex6_r004_012] (Eterna round: R97, puzzle: Exclusion 6)",,336,29.2,,,
"UUACGGCGGAUCGUGGCUUUUUGCUCGUCUUGUGCUACAACAUGAGGAUCACCCAUGUAGAGGUGAUCCGUUGUAUU [Grok-var2-19 mod JAL] (Eterna round: R96, puzzle: Sensor v3, turn-off variant 2)",,342,740,,,13.4
"AGGUGCUUCUGGAGACAUGAGGAUCACCCAUGUUGAGUUAGCGAGGAUAUCGGUAACGCAUGUGAUGAGAAGGCGCAAACCAAU [Ex NG3 #47] (Eterna round: R96, puzzle: Exclusion NG 3)",,79.7,47,,,30.7
UUUUAACAUGAGGAUCACCCAUGUGAGGAUAUCGAAAUUUAUAUUAAUAUUAUUAUUUCGAGAAGGCACAUUUU [JMF 41] (puzzle: Exclusion 1),155,,,,,
"UUGAGCAGACGGAGAUCCAACAUGAGGAUCACCCAUGUCUCAAAAGCUUUUUGCUCAUCUUAUCGUACCUUGGUGCU [Mat - Sensor v3 - turn-off var 1 - JL Mod - D15] (puzzle: Sensor v3, turn-off variant 1)",9.75,,,155,302,
ACCUCACAUGAGGAUCACCCAUGUCAGGAUAUGUACCCGAUCAAGUCAGAGAUUGGGAGCAGAAGGGACUGCGG [Leesla] (puzzle: Exclusion 1),104,,,,,
ACUAGAUGAGGAUAUGCAUAUUUUCGUGUUCUUCUAGAUUAACAUGAGGAUCACCCAUGUAGAAGGCGUCAAUA [Exclusion 2 - 15] (puzzle: Exclusion 2),15.4,,,,,
"AAGCAGCGAGGAUAUGCUUGAGCGUGUCCUAGUUGAAAUAAACUUGAGGAUCACCCAAGUAGAAGGCGCAGCCC [Rivezaed] (Eterna round: R97, puzzle: Exclusion 2)",,135,49.1,,,
CUUUUGUGAGGAUAUCAGUAGUAUAUAAAUAAAAUUACUACUGAGAAGGCACAUGAGGAUCACCCAUGUUCCUC [salish99_ex3_r3_076] (puzzle: Exclusion 4),35.5,,,,,
"GACAGGGCAGGAUAUCGAGAUCCUCACAUGAGGAUCACCCAUGUUCAGUCGAAAGACUGACGAGAAGGGCCGUGUC [Omei Ex5 E3] (Eterna round: R97, puzzle: Exclusion 5)",,36.8,33.2,,,
"AAACGGUAAGGAUAUCGGGCAACGGACAUGAGGAUCACCCAUGUGAACCUGCGUAUCCUCCGAGAAGGUACAAAAG [Diinbibe] (Eterna round: R97, puzzle: Exclusion 5)",,20,10.9,,,

Sequence,apparent KD of MS2 coat protein [1] [nM],apparent KD of MS2 coat protein (input ligand: FMN 200 uM) [nM],apparent KD of MS2 coat protein (input ligand: none) [nM],apparent KD of MS2 coat protein [2] [nM],apparent KD of MS2 coat protein [3] [nM],apparent KD of MS2 coat protein [4] [nM]
GUAGAGUCAGGAUAUACAGAAGAAGCAUGGAAAACAUGGAUACAUGAGGAUCACCCAUGUAGAAGGGACUCUAC [ChP 11-04-2015 #2] (puzzle: Exclusion 2),33.2,,,83.6,41.5,
"GCGAUUUCCGAGGAUAUCCUGCACACUAUCUAAGGAGAAGGCGGAACUUGAGGAUCACCCAAGUGCAUCCGAAU [Isusbe] (Eterna round: R97, puzzle: Exclusion 6)",,135,39.5,,,
UUUUAACAUGAGGAUCACCCAUGUGAGGAUAUCGAAAUUUAUAUUUAUAUUAAUAAAACGAGAAGGCACAUUUU [JMF 75] (puzzle: Exclusion 1),70.4,,,119,87.4,
UGUGCGUAUGUGAGGAUAUGCUGGUCCUUGGAUCGGCAGAAGGCACAUGAGGAUCACCCAUGUGGUGUCGUACG [salish99_Bmod_ex4_079] (puzzle: Brourd's mod of Exclusion 4),82.8,,,191,142,
"GUAAUUAAUGUAGGAUAUGCAAGGCGAACCUAAGCAGAAGGACAUGUGGAUCACCCAUGUAAUGCGGUCUGCGUACAGAUCGCU [salish99_ex1_NG1_002] (Eterna round: R96, puzzle: Exclusion NG 1)",,507,60.2,,,103
"UGUUGUCGCGCAGGAUAUGAGGAUCACCCAUAUACAGGAUAUGAAAAGAAGGGUCUGAGGAUUACCCAGAAGGGCGGGACAACU [pwkr exNG2 2xF5 2xFMN.26] (Eterna round: R96, puzzle: Exclusion NG 2)",,386,88,,,59.1
AUUUAGAGAGGAUAUAUUAUGUGAAACAUGAGGAUCACCCAUGUAAUAUGAUGGAUAUAAAUAGAAGGCUCAUUUA [Mat - Exclusion 5 - JL mod - D24] (puzzle: Exclusion 5),32.3,,,,,
"CACCGUUACUGAGGAUAUCUUACAUGAGGAUCACCCAUGUAAUAAAUGAGAAUUUCGGAUGUAUUAGAGAAGGCAGAAAUCGGC [Ostricism 61 - Jieux - Exclusion NG 2] (Eterna round: R96, puzzle: Exclusion NG 2)",,22.6,23.9,,,16.3
GAAAAGGUAGGAUAUACGAAAAAAAAGGGCAGAAAAAAAACACAUGAGGAUCACCCAUGUAGAAGGACCAAAAG [salish99_ex2_r3_065] (puzzle: Exclusion 2),24.3,,,26.6,23.2,
"UUGUGCACGCUGCGGUCCUACAUGAGGAUCACCCAUGUGGUCUGGUGGCGUGGGUCACCGGACUUGGCUCGUCUUGU [salish99_S_TOV1_R5_060] (Eterna round: R97, puzzle: Sensor, turn-off variant 1)",,36.2,42.3,,,
"AAUAACAAGUUGAUCCUACACAUGAGGAUCACCCAUGUGCUCGUCUUGUCAAGUACUAUCACGAAAGUGUUAGUUCA [Mod-Hyphema] (Eterna round: R97, puzzle: Sensor, turn-off variant 1)",,74.7,263,,,
"GGGUGACAUGAGGAUCACCCAUGUCAGGAUAUGGGCCCGGGCCCGAAAGGGUUUGGGCCCAGAAGGGACUGCCC [-44.5, -43.5 kcal, 22%A (-3 GC series)] (Eterna round: R97, puzzle: Exclusion 1)",,145,50.3,,,
"GGUACUAUCACCUGAGUGGUAGUGCAACAAGCUUGUGAUACAUGAGGAUCACCCAUGUCCUCAUUUGCUCGUCUUAU [JL-sv3-2.25 JL mod] (Eterna round: R96, puzzle: Sensor v3, turn-off variant 2)",,237,245,,,858
"GCGAAAGCAAGCAAGUGAAACAUGAGGAUCACCCAUGUCCUCAUUUGUUCGUCUUAUAAGCUAUGCGAAAGCAUAGC [Sensor 3, v1 - 7] (puzzle: Sensor v3, turn-off variant 1)",218,,,18.4,19.4,
"CCAUCACAUGAGGAUCACCCAUGUUAGGAUAUCAUUAGCCUCGGAGCUAUAGCGAGGUUGAGAAGGGACAUGUC [Eternabot (L1) Solution 87] (Eterna round: R97, puzzle: Exclusion 1)",,19.9,22.7,,,
CGUACUGAAGUGAGGAUAUUGUCUCGGAUACGAAACAAGAAGGCACAUGAGGAUCACCCAUGUAAACAGUACGA [Malc #30 mod 10] (puzzle: Brourd's mod of Exclusion 4),15.6,,,,,
"AUCCAACAUGAGGAUCACCCAUGUCAGGAUAUCUAGCGGUGCGGCAACCCGGGCGCGCGGAGAAGGGACAACGG [EX1 B.23] (Eterna round: R97, puzzle: Exclusion 1)",,56.2,27.2,,,
